Experimental findings from US20250277788A1 (GUIZHOU MEDICAL UNIVERSITY, published 2025) are described below.

Test [1] addresses T1, recombinant SARS-COV-2 N protein (SARS-COV-2, UniProt P0DTC9 1-419).
T1 construct: also called nucleocapsid protein
Nature of the test: direct ELISA, N protein coated at 5 µg/mL, pNPP colour development for 90 min.

The target in test [2] is T1, recombinant SARS-COV-2 N protein. Nature of the test: direct ELISA, N protein coated at 5 µg/mL, pNPP colour development. Background: An ELISA detects its analyte on a solid surface through an enzyme-linked reagent.
Test [3] has the same target. Nature of the test: SPR (UA Biotech); orientation not stated.

B1: H6-AP fusion protein (single-chain antibody H6 fused to alkaline phosphatase) (other)
chain: MAEVKLAESGPELVRPGVSVKISCKGSGYTFTDYPMHWVKQSHAKSLEWIGVISTYSGNTNYNQKFRGKATMTVDKSSSTAYMELARLTSEDSAIYYCTRGGNYGFDPWGQGTTLTVSSAKTTAPSVGGGGSGGGGSGGGGSDIQMTQSHKFLSTSVGDRVNITCKASQDVGTAVAWYQQKPGQSPKLLIYWASTRHTGVPDRFTGSGSGTDFTLTITNVQSEDLAEYFCQQYSSYPLTFGSGTKIEMKRAVDSSGSTSGSGKPGSGEGSTAAAARAPEMPVLENRAAQGDITAPGGARRLTGDQTAALRDSLSDKPAKNIILLIGDGMGDSEITAARNYAEGAGGFFKGIDALPLTGQYTHYALNKKTGKPDYVTSSAASATAWSTGVKTYNGALGVDIHEKDHPTILEMAKAAGLATGNVSTAELQDATPAALVAHVTSRKCYGPSATSEKCPGNALEKGGKGSITEQLLNARADVTLGGGAKTFAETATAGEWQGKTLREQAQARGYQLVSDAASLNSVTEANQQKPLLGLFADGNMPVRWLGPKATYHGNIDKPAVTCTPNPQRNDSVPTLAQMTDKAIELLSKNEKGFFLQVEGASIDKQDHAANPCGQIGETVDLDEAVQRALEFAKKEGNTLVIVTADHAHASQIVAPDTKAPGLTQALNTKDGAVMVMSYGNSEEDSQEHTGSQLRIAAYGPHAANVVGLTDQTDLFYTMKAALGDIAHHHHHH
notes: also called fusion protein H6-AP
Turning to B1, the “fold of OD405 nm over control group (blank blocked wells) at 90 min” value in test [1] was found to be 31 fold. In test [2], the “fold of OD405 nm over control group (blank blocked wells)” value was found to be 16 fold.

B2: SARS-COV-2 N protein-specific single-chain antibody H6 (scFv, V domains shown)
VH: EVKLAESGPELVRPGVSVKISCKGSGYTFTDYPMHWVKQSHAKSLEWIGVISTYSGNTNYNQKFRGKATMTVDKSSSTAYMELARLTSEDSAIYYCTRGGNYGFDPWGQGTTLTVSS
notes: also called H6 antibody; scFv H6; not shown: C-terminal tags from the pHENHi vector (c-myc and a His tag, with the NotI junction)
As to B2, in test [3], the dissociation constant (Kd) – broadly, the equilibrium constant for the complex coming apart – was determined as 0.298 nM; the koff (as a rule, the rate constant with which the complex falls apart) was found to be 0.000286 s⁻¹; the kon (as a rule, a measure of how fast the partners come together) was found to be 958000 M⁻¹ s⁻¹.
